By Kd is commonly meant the free concentration of one partner at which half of the binding sites on the other are occupied at equilibrium, for simple one-to-one binding.

Like-named read-outs stand apart in the source and are kept apart here. No end group written: not given here. IANBD = IANBD fluorescent probe (code IAN) attached to the cysteine

The source of these data is publication PMC3717379 (Biochemistry, 2013).

Experiment [1] concerns the target monocysteine SecA mutant SecA-59C (E. coli) (UniProt P10408). In words: FRET or BRET. In general terms: BRET reads energy transfer from a luciferase to a nearby fluorophore.
The target of experiment [2] is monocysteine SecA mutant SecA-402C (E. coli) (UniProt P10408). Briefly: FRET or BRET.
Experiment [3] concerns the target SecA-340C (Escherichia coli, UniProt P10408, C885S/C887S/C896S/C98S/T340C). It is filed as binding.
Experiment [4] addresses SecA-506C (Escherichia coli, UniProt P10408, C885S/C887S/C896S/C98S/M506C). It is filed as binding.
In experiment [5] the target is wildtype SecA (Escherichia coli, UniProt P10408). In words: Fluorescence anisotropy binding of IAN-labeled signal peptide to wildtype SecA. (In general: Fluorescence polarisation rises when a labelled molecule tumbles more slowly, as on binding a larger partner.)
The target in experiment [6] is SecA-458C (Escherichia coli, UniProt P10408, C885S/C887S/C896S/C98S/S458C). Type of experiment: binding.
For experiment [7], the target named is SP22, 22 residue long E. coli alkaline phosphatase signal peptide with cysteine at position 22 (E. coli). In words: fluorescence polarisation.
In experiment [8] the target is monocysteine SecA mutant SecA-340C (E. coli) (UniProt P10408). In words: FRET or BRET.
For experiment [9], the target named is monocysteine SecA mutant SecA-506C (E. coli) (UniProt P10408). In words: FRET or BRET.
The target in experiment [10] is monocysteine SecA mutant SecA-458C (E. coli) (UniProt P10408). In words: FRET or BRET.
In experiment [11] the target is monocysteine SecA mutant SecA-696C (E. coli) (UniProt P10408). In words: FRET or BRET.
Experiment [12] concerns the target SecA (Escherichia coli) (UniProt P10408). Conditions: cited from earlier work.
The target is the same in experiment [13]. Conditions: cited from earlier work. This is another data set of the same source.
Experiment [14] addresses wildtype SecA (Escherichia coli) (E. coli, UniProt P10408 1-901). In words: fluorescence polarisation.

In [1], “monocysteine SecA mutant SecA-59C (from UniProt P10408 1-901) (natural protein)” returned an E FRET (AF568-AF647 dye pair) of 1 and an E FRET (IAE-IAN dye pair) of 0.38. The molecule also registered an E FRET (IAE-IAN dye pair) in experiment [2] of 0.4.

For the molecule “MCKQSTIALALLPLLYTPVTKARTPEMPVLENRAAQGDITA-NH2 [SP41]”, the Kd in experiment [3] was 6200 ± 4300 nM; in experiment [4] it was 6300 ± 1000 nM; in [5] it was 6200 ± 800 nM; in experiment [6] it was 4800 ± 600 nM.

In the case of MKQSTIALALLPLLFTPVTKAC-NH2 [SP22], the equilibrium dissociation constant (Kd) turned out to be 1100 ± 400 nM in experiment [3], 1500 ± 700 nM in experiment [4] and 3000 ± 1700 nM in experiment [6].

For the molecule “monocysteine SecA mutant SecA-402C (from UniProt P10408 1-901) (natural protein)”, in [2], the E FRET (AF488-AF568 dye pair) is 0.31 and the E FRET (IAE-IAN dye pair) was determined as 0.19.

“monocysteine SecA mutant SecA-340C (from UniProt P10408 1-901) (natural protein)”: the Kd in experiment [7] is 1100 nM. In experiment [8], this molecule gave an E FRET (AF488-AF568 dye pair) of 0.78, an E FRET (IAE-IAN dye pair) of 0.12, an E FRET with SP22 (AF488-AF568 dye pair) of 0.64 and an E FRET with SP41 (AF488-AF568 dye pair) of 0.23.

“monocysteine SecA mutant SecA-506C (from UniProt P10408 1-901) (natural protein)”: the equilibrium dissociation constant (Kd) in [7] was 1500 nM. In experiment [9], this molecule displayed an E FRET with SP22 (AF568-AF647 dye pair) of 0.67 and an E FRET with SP41 (AF568-AF647 dye pair) of 0.69.

On to “monocysteine SecA mutant SecA-458C (from UniProt P10408 1-901) (natural protein)”, for which the equilibrium dissociation constant (Kd) in experiment [7] came to 3000 nM. In addition, in [10], the E FRET with SP22 (AF488-AF568 dye pair) turned out to be 0.45 and the E FRET with SP41 (AF488-AF568 dye pair) was 0.45.

“monocysteine SecA mutant SecA-696C (from UniProt P10408 1-901) (natural protein)” displayed a dissociation constant Kd in experiment [7] of 2500 nM. In experiment [11], this molecule displayed an E FRET (AF488-AF568 dye pair) of 0.23, an E FRET with SP22 (AF568-AF647 dye pair) of 0.42 and an E FRET with SP41 (AF568-AF647 dye pair) of 0.41.

On to SecA (from UniProt P10408), for which the Kd in [12] was 1 nM; in experiment [13], 2200 nM.

Take MKQSTIALALLPLLFTPVTKAC(IANBD)-NH2 [SP22, 22 residue long E. coli alkaline phosphatase signal peptide with cysteine at position 22]: the dissociation constant Kd in experiment [14] came to 1400 ± 200 nM.
